Assay [1] has as its target Microtubules polymerized from bovine brain tubulin (bovine) (UniProt Q6B856). The assay can be described thus: single-molecule TIRF microscopy (dwell times); spiking: 5 nM 647-SSNA1 with 1 µM 488-SSNA1 on surface-bound GMPCPP-stabilized microtubule seeds; 5-10 min after SSNA1 addition; 5 fps; 35°C.
Assay [2] has the same target. The assay can be described thus: single-molecule TIRF microscopy (dwell times); 5 nM 647-SSNA1 (100% labeled) alone on surface-bound GMPCPP-stabilized microtubule seeds; 0-5 min after SSNA1 addition; 5 fps; 35°C.
Assay [3] shares this target. Nature of the assay: single-molecule TIRF microscopy (dwell times); 5 nM 647-SSNA1 (100% labeled) alone on surface-bound GMPCPP-stabilized microtubule seeds; 5-10 min after SSNA1 addition; 5 fps; 35°C.
For assay [4] the target is unchanged. Nature of the assay: TIRF microscopy; dynamic microtubules grown from GMPCPP seeds with 9 µM tubulin and 5 µM 488-SSNA1 (7% labeled), imaged 60 min; SSNA1 intensity at the microtubule end region; 35°C.
Assay [5] has the same target. The assay can be described thus: single-molecule TIRF microscopy (dwell times); spiking: 5 nM 647-SSNA1 with 1 µM 488-SSNA1 on surface-bound GMPCPP-stabilized microtubule seeds; 0-5 min after SSNA1 addition; 5 fps; 35°C.

As to “Human 6His-SSNA1 (Sjögren's syndrome nuclear autoantigen-1) (from UniProt O43805 1-119) (natural protein)”, the association rate (events µm^–1 nM^–1 s^–1) in assay [1] is 0.0024; in assay [5], 0.00096. The mean single-molecule dwell time in assay [1] was 39 s; in assay [2] it was 12 s; in assay [3] it was 10 s; in assay [5] it was 19 s. In assay [4], this substance showed an SSNA1 fluorescence intensity at the microtubule end region, 3 min of 0.33 a.u.
